A short description of this data set: label from the status in PepcDB records.
With “MKQKLVVMIAAVLILALTVSIASAEDQNDQTSLRSEQNDAFVAGDNLIDSSSVIKYGDPIGSYKNVTAYSNKGNGKYQCVEYVKRFYKEAMNVEPDWDGTGNAITYYTNAEAKGLVSYSNNGSVAPKPDDIIIFSPTDNGYGHVAIITEVGDKYIKIIEQNWNQENAFASLSLEKNGSKYYISPRGASKRPTEGWCRTPILNIISPTKKSFSLVGNYNNPNLLTVDAEVKSENVPITGLNKDNFTIEIGSKKVNDVTVSDVGEGKYKLSFNPPKQDSNGNYDLNVYVKYKKVTLSDSELNAVRYGEDNANANANVMLVIDRSGSMSGSPISSAKNSANLFIDYMEAEDMAGVVSFSSSARYDYHLATLTPEVKNSIKQKINSIYASGVTAIGSGMRYGLNDLLNYGDPNNPWAIVLLSDGYQNSGENPNNVIPSIKASNIQVYTVGLGPAVDQKLLGNIADQTGGKYYYSPTDSQLQEIYNDIVGKIIGWKTVFKRNVKMFIHERVPIAVPIDSAIDKVSFGIGWPGSNVDLVLYKPDGTLVDPSFADSDPTIEYLSGPTYKIYKVTDPESGMWNMELNATDMPAGGEDVYVTVLAESTLSMSLSTNKGQYNQGEVVKIIADLSDAGTQITGADVKVNVTLPDSSVEYLTLYDDGGHGDNGSQDGVYANYLVDTSLMGDYKVDVTSTGSLSDGSQFKRIEDTSFEIIQGISSISSIANLQSTNDITWINWTWTNPTGPNFSHTEIYLDGVFQANTSAEFFNATGLEPETEYTLSTHTVDISGNVNETWVNSTATTSAELVSDVKKPVIDSVNLFPANTTAGATINLSINATDDTAVTEVIAGDIQLIKTDDIWQGSITAPSSIGSYSLLIKAKDAAGNVAEASVPYRVVQLSGGANIAVSPRSSSIVAGNSVTLNIKVKNTQNIDDIFKVNITVSELPAANQANIDWFSWTEQSVKLRAGEEILLPLEVEVPDGTALGLKLFRANVNSETSVVTGFDTGYLKVV”, the protein production result is on record as “failed”.
Turning to “MKQKQFYFIYVFLLSMTFLGACSKDSPNELIPNTIVKIEIDKLPGKRIYFIGEELDVSDMTLKVFYSNETSEIVPVKKDEVTGFNSTVPENDQILEVHKGSFTVTFKIQVLINDIQAISIKTLPSKTVYTLGEPLSLSNMVLEINYADGTIKENSAPSADWVQGFNSSVPAQLQIVTLELDGKQVSFDVQILPVKVDGDKVVSVIDSDFTSITFPDGIRTIGSKAFENKNIKASELLCPASLSTIEQAAFAYCRNLKIVDLSHTSIKELPEEAFLFSGIKKIALPASLEIVGKEAFYGCTDLNVIDISHTSVKELQNGAFGKSGISSISLPSTFKIVGASAFIETKNLKELTLPEGSEVIDLEAFSGSSIQKVTLPNTIYHIDRSFYSCPELTTIETYGTRTTPSPVDRTAAIVSECFNHSPKLTVLKIPASIVKIGISALNKCQVKTLILPASVKALDFNAFGNAVSLDEISLMSPTMVTADYYPVPPGIQKIRVPQNLVETYKQNKAWKPFAEKIVAL”, the protein production result is recorded as “failed”.
On to “MKQKRLTFLLLLISNLFCASAQKWYKPEIDLKVEELLSQMTVEEKLGYIGGIDWMYTKSIDRLGIHRMRMSDGPQGIGTKGKSTAYPATVTLAATWNENLAYQYGKALGRDCRARNINVILGPAVNIYRAPMCGRNFEYMGEDPYLTSRICVGYIKGVQDQGVMATVKHFVANNSDYDRNNISNDIDERTLNEIYFPAYKAAIQEAEVGAIMTSYNLMNGIYTTENPWLLKEVLRNQWGFKGLVMSDWGSTHYCVPAARSGLDLEMAGGEKMNPKDMAYYLKTGDVTMDMVDEKVRHILRILIAFGFKDGTEADKSIALDDPQSVETA”, for which the protein production result is reported as “failed”.
For the sequence “MKQLLEFIPLILFFAVYKLVGVQAAAITLVLATILQLILVRILFKKLETSQWIVGLSVIIFGILTAYFDDLAFLKWKVTIINGLFAAVLLISQYVFHKPVVKMLLAKELSLPTQVWNRLNLGWAIFFIICMLINIIISQLFSDDTWATFKTFGFTGLSLVAVIITGIYLYPYIKKLENNNEQK”, the protein production result is “failed”.
For the sequence “MKQLTILGSTGSIGNSTLSVVRANPELFKVTALVAGRNVREMAQQCLEFSPRYAAMSDEHSAKSLRLLLAEQGSDTEVYSGETAACELAALDDVDQVMAAIVGIAGLPSTLAAIRAGKQVLLANKESLITCGKLFMDEVKRSRAQLLPIDSEHNAIFQSLPERIQRQLGYSSLNENGVSRIILTGSGGPFRETPLSQFSDVTPDQACAHPNWSMGRKISVDSATMMNKGLEYIEARWLFNASAEQIEVVLHPQSVIHSMVRYHDGSILAQMGTPDMRTPIAHAMAYPMRVSSGVAPLDFCKVGALTFTTPDYQRYPCLKLAIDACNAGQAATTALNAANEISVMAFLDSKIRFTDIEVINRTVVEGLLLSEPTSVEEVLVIDRKARDVAAQVIAKLNN”, the protein production entry is given as “not failed”.
For “MKQMSITLIFIMAFTIIIHAVETSSYSIRLAGVRLKKIAVALSVVGMVLLISRTSNLLQAFLIGGIVDEAKLDSSIDLEHIIRLVLLSASIGTLLAIILYPTLTKLFGYVIQNFETDGSFIRMMKTNNIQKLKYTKKYVRFPKLEMIHRLRIGGIPKRIMLINMFATAIYTAGVLSALYASFLNPDYATNASTASGLVNGFATILLTVLLDPRIALLTERALQSENGAESMSKMYGWLMISRLFGTLLAQLLFVPGAYWILWIIELIH” the value was “failed”; for “MKQNQQNKKSFEVQLTQLFLFTSLPLFFLLIGVMIYANISLYLILLTMLISSLVIVYSHSKLHQKSAYQFRSLSNLLDAMVQGDYSLRARISDGDEALNELVDSINSLSLRLNKQRIETTESQLLLTTVINHIDVAILALNENNELVLTNPAAKKLLQIPAEQQEFDLIESFSQFSQIAAMNSGNSQVMSLYFANQQGKFNVHLEEYRENGKPQKLVFITDVSTMLRSEERNAWQALVRVISHEINNSLSPIASISQSLRRLLARQEKLENHKEYLVEGLSIISQRSNSLTEFVNSYKQIASLPEPKKQPSSVLELVNKTVALYPDECIEVQNIDDITLVLDAVQFEQVLINLVKNAVEAVKSAGEAGKVAISGQVNGKVFSLSLADDGTGVSNLENLFVPFYSTKSKGSGIGLVLCRQIIEAHGGKITLTNRLGVSGCIATIELPL”, “failed”.
As for “MKQPTLAVIMTCHNRRNTTLACLQALYQQKNHFDVYLTDDGSTDGTAEFIKAEYPDVKIFQGDGNLFWVGGMHLAFGEAIKNQYDYYLWLNDDTFLEADALEKLLQVHENLAVEGYGQSIVVGSTQDPITKQATYGGAVKSKKWYSNKFEFLEPTSDVQKCDAMYGNCVLIPHSVTLKVGNIDTAFIHSLGDLDYALRARNLGLEHHHHHH”, the protein production entry was “failed”.
As for “MKQSKIIVAGIGPGSEQDITPAVLAAVREADVVVGYKYYFRFIRDFVRPDAECIDTGMKRERARAEQAFEYAEQGKTVCVISSGDAGIYGMTPLIYEMKRERQSNVEIIALPGI”, the protein production result is “failed”.
For “MKRDHHQFQGRLSNHGTSSSSSSISKDKMMMVKKEEDGGGNMDDELLAVLGYKVRSSEMAEVALKLEQLETMMSNVQEDGLSHLATDTVHYNPSELYSWLDNMLSELNPPPLPASSNGLDPVLPSPEICGFPASDYDLKVIPGNAIYQFPAIDSSSSSNNQNKRLKSCSSPDSMVTSTSTGTQIGGVIGTTVTTTTTTTTAAGESTRSVILVDSQENGVRLVHALMACAEAIQQNNLTLAEALVKQIGCLAVSQAGAMRKVATYFAEALARRIYRLSPPQNQIDHCLSDTLQMHFYETCPYLKFAHFTANQAILEAFEGKKRVHVIDFSMNQGLQWPALMQALALREGGPPTFRLTGIGPPAPDNSDHLHEVGCKLAQLAEAIHVEFEYRGFVANSLADLDASMLELRPSDTEAVAVNSVFELHKLLGRPGGIEKVLGVVKQIKPVIFTVVEQESNHNGPVFLDRFTESLHYYSTLFDSLEGVPNSQDKVMSEVYLGKQICNLVACEGPDRVERHETLSQWGNRFGSSGLAPAHLGSNAFKQASMLLSVFNSGQGYRVEESNGCLMLGWHTRPLITTSAWKLSTAAY”, the protein production entry is given as “failed”.
For “MKRFQKQILLRRILQMDYKQIAKEVIEALGGRENVNSVAHCATRLRVMVKDENKINKEKAENIEKVQGAFFNSGQYQMIFGTGTVNKIYDEVVAQGLPTASKDEQKAEAAKQGNWFQRAIRSFGDVFVPLLPAIVATGLFMGIRGAINNDTVLALFGTTSKAFAATDFYTYTVVLTDTAFAFFPALICWSAFNVFGGSPLLGLVLGLMMVNNALPNAWDVVSGAAKPIYFFDFIPVVGYQNSVLPAFFVGLIGAKFEQWVRKWVPDVLDLLLRPLVVFAVMSALALFIIGPVFHTVESYVLAGTEWILALPFGLAGLVLGGIHQIIVVTGVHHVFNLLEANLISNTGKDPLNAIITAAMTAQAGATLAVGVKTKDSKLKALAFPASLSAVLGITEPAIFGVNLRFGKPFIMGLIAGAAGGWLASILNLAGTGFGVTIVPGTLLYLNGQVLKYVIMVLVTLALGFALTWIFGYKEEEVEAQTEVVAEDIASAGSAPVALQAETIAAPLKGEVVALENVNDPVFSSGAMGKGAAIKPSGNRVVAPFDGEVQIAFPTGHAYGLKSDKGAEVLIHIGIDTVSLDGKGFDAKVQANQRVKKGDVLATFDSSVITEAGLDDTTMVIVTNTADYEDVSLVATGSVAEGGDFIAVK” the value was “failed”; for “MKRIILLAFLCTTTLVMAQRINHVQEAIANYDYEAALTLIAKEKPTIPLLLQKGKAQRGLGMNTEALSTYQEIIANDTANTRAYIEAAECCRSLAKYQQALKYYEQALDLNPENKYVRIQYIGLLLSLQKFQDALGESSLMTEKDSSAIALHLQAQSFEGMGELLPATGCYYNIQEKYPDDYLAAAKLAALNIAGSYFNEAIEATEKYRQTDTTNIAVNRQNALAYCLNKDYPTAIQRYEYLVSQGDSSFHTCYYLGISYYAEEKYYEAHDFLEAARKHDPENVNLLYYLGRACAKTSWKKLGVEYLEKALDLTIPKDSNMVRLYIGMTDCYKMAQMPKEQIESIRERYRKYDKQNHKLLYDMAFIYFYSLKDKKNTERCLEAFLKTRPKEDKEEEAKLNERGELVLGTKNYYNAAANWLKDIQSKQKIEDFFLGGNVPAQKPE”, “failed”; for “MKRKLVTSALPYVNNFPHLGNLIQVLSADVFARFCRLKEYETLYICGTDEYGTATETKALEEKKSPEELCSFYHAIHAEIYNWFNIAFDYFGRTSTPQQTEITQGIFNDLDKNGYITEHTIEQLYCPSCKRFLADRYVLGTCPSCSYDGARGDQCEHCGKLLDPTDLKEPRCSSCGAAPEVRSTTHLYINLPKIVPEYEKWMPKTAEEGRWSNNALQMSKSWLRDGLQERAITRDLKWGIPVPKKGFEDKVFYVWFDAPIGYISITKCWADLAGKDWKAWWLDQNDVELFQFIGKDNIPFHTVIFPCSLIGSGKNWTKLFHMSGTEYLNYENGKFSKSKGVGVFGNDAKESGIPADMWRFYIFYNRPEKNDTQFTWKDFQERVNSELIGNLCNLVNRTATFIHRYYDGKIPQVDGAKSGREDIKSMVKSLREAASASFKKITELSDWAELRDSFHEAFALSSVANKAFQDGEPWKRRETDPEYAEALMSELCYLIKDILILIHPYMPQYADQAAGFFGQKIWSGNIFDGKAPQFNKPEGSFLSWKNLGEREGLKTVENPVIIFKTLDNKVIDAYRERYSGSQKDRKKSEKGCSACKDSGSSKSDAAASSAKPEVKLSPAELFSKKIALKTAKIISVERHPDADKLYIEKLDDGSGEERTILSGLVPFLKEDEILGKTVIIADNLKPRKMRGIESKGMLLAASWYDEEEKEHVELLQAPWAAPGTPVILEGDADISDPEAVKAFYAQKPAAIDADTFFAAPILIEDYIPKIEGKKLLVAGKEMKLEKVKTGEAG”, “failed”.
Consider “MKRKQESKGAGEKRQGAGGRGQGEKKQGKQGRQGRQGRQGEKSPVPSPQSPIPNPQFTTPNPDEWLQIGKIVSAQGLSGEVRVYPDSDFPERFEVPGTRWLLRPGQTEPQPIELLHGRYLENKNLYVLQLAGVENRSQSEELRGCMLFVPASDRPELGEDEYHVVDLIGMEVFLQASGDLVGAVVDVIPAGNDLLEVSLHEPVTSDKKPKTVLIPFVKAIAPVVDLQTRRIEITPPPGLLELGSGV”, for which the protein production entry is given as “failed”.
For the sequence “MKRLLERSHALLTAPVGATPRVLALVAALLVVPTYVAPLWNLTMFAPQYGDGLRLDIYSYKLEGGNHGQDLKEINLLNHYIGMHDLAEEDFREFKWMPFVMGGLALVFLRAAVMGRVLDLLDSLVVFTWFGLFSLWSFGYKLYSYGHDLAPGAPVKVPPFMPPMIGSAQLANFEVYSYPGLGSYALFAVGLALAVALALGVRATLRRSAAAPLPRGGP”, the protein production entry is on record as “failed”.

These data come from a protein production outcome set (Wang et al. 2014).
